The results in this text go back to paper PMC5583172 (2017).

Where no end group is shown, it is not given here. [ ]: non-standard residue; d: D form. The star is where a group is joined. NMeF = CN[C@@H](Cc1ccccc1)C(=O)O; NHCH2CH2OH = OCCN*

What is called Ki is the dissociation constant of the complex between target and ligand, obtained from inhibition or displacement.

For test [1], the target named is mu opioid receptor (MOR) of wild type mouse brain (mouse (endogenous in brain), UniProt P42866 1-398).
Sequence of mu opioid receptor (MOR) of wild type mouse brain (P42866 whole entry): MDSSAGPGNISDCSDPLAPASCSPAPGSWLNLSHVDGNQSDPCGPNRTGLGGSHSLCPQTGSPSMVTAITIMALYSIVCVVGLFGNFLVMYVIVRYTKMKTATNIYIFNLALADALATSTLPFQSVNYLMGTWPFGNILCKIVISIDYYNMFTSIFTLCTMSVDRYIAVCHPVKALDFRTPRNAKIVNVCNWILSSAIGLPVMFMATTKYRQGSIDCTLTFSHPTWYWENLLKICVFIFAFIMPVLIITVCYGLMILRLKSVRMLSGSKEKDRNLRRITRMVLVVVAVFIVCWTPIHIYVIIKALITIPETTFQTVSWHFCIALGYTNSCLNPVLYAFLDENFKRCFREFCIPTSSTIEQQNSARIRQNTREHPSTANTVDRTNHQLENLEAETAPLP
The target of test [2] is human mu opioid receptor (MOR), stably expressed in HEK293 cells with GloSensor (human, UniProt P35372 1-400).
Sequence of human mu opioid receptor (MOR), stably expressed in HEK293 cells with GloSensor (P35372 whole entry): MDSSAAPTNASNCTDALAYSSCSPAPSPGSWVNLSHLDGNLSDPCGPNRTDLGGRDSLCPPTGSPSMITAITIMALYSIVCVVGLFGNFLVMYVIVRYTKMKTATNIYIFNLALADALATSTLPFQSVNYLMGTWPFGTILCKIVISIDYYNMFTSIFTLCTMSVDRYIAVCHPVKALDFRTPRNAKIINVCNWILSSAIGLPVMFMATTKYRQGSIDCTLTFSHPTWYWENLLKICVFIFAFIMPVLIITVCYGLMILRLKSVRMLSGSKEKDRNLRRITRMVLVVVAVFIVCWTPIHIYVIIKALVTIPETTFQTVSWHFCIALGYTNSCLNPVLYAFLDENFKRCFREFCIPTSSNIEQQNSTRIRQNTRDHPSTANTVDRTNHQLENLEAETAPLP

As to Y[dA]G[NMeF][NHCH2CH2OH] [DAMGO ([D-Ala2, N-MePhe4, Gly-ol]-enkephalin)], the Ki is 3.1 nM in test [1] and 9.6 nM in test [2].
